B1: Friend leukemia integration 1 transcription factor, residues 116 to 197; numbered along this chain, Q01543 (parent)
chain: NMTTNERRVIVPADPTLWTQEHVRQWLEWAIKEYSLMEIDTSFFQNMDGKELCKMNKEDFLRATTLYNTEVLLSHLSYLRES

Variants of: B1
Assay: abundance fitness (aPCA) (normalised: wild type 0, dead -1); higher = more abundant; growth selection in yeast, the domain comes from the species named
Details: Homo sapiens

Abundance fitness, by site and new letter:
E21: W -0.295
H22: A -0.318; C -0.529; D 0.116; E 0.062; G -0.106; I -0.201; K -0.199; L -0.386; M 0.028; N -0.007; P -1.02; Q 0.045; R -0.266; S -0.246; T -0.274; V -0.17; Y -0.365
V23: A -0.632; C -0.752; D -0.759; F -0.686; G -0.931; I -0.386; K -0.752; L -0.175; M -0.844; P -0.044; Q -0.92; R -0.74; S -0.538; T -0.23; W -0.814
R24: A 0.106; C -0.347; E -0.348; F -0.044; G 0.039; H -0.161; I -0.183; K -0.09; L -0.011; M -0.131; P -0.804; S 0.093; T -0.058; W 0.054; Y -0.278
Q25: A -0.066; C 0.036; E -0.334; F -0.106; G -0.039; H -0.083; K 0.041; L -0.093; M -0.187; N 0.092; P -0.915; R -0.006; S -0.246; T -0.045; V 0.078; W -0.251; Y -0.143
W26: C -0.626; E -0.921; K -0.813; M -0.445; N -0.732; P -1.04; Q -0.818; S -0.402; T -1.01
L27: A -0.229; C -0.384; D -0.532; E -0.857; F 0.079; G -0.284; H -0.463; I -0.132; K -0.708; R -0.876; S -0.438; T -0.383; V 0.035; W -0.856; Y -0.834
E28: A 0.006; C 0.009; F -0.366; G -0.189; I 0.141; K 0.058; L -0.013; M -0.187; N -0.377; P -0.745; Q 0.005; R -0.018; S -0.123; T -0.017; V -0.035; W -0.285; Y -0.12
W29: A 0.101; C -0.041; D 0.189; E 0.212; G 0.168; H -0.033; I -0.029; K 0.005; L -0.116; N 0.432; P -1.01; Q 0.084; R 0.003; S 0.112; T 0.13; V -0.14; Y -0.058
A30: C -0.058; D -0.709; E -0.071; F -0.287; G -0.253; H -0.162; I -0.061; K -0.161; L -0.186; M -0.057; N -0.136; P -1.07; Q 0.18; R -0.21; S 0.031; T -0.058; V -0.092; W -0.554
I31: F -0.549; G -0.384; H -0.034; K -0.059; L -0.305; M 0.08; P -1.22; Q -0.075; R 0.063; S 0.041; T -0.023; V -0.001; W -0.48
K32: C -0.401; D 0.007; E 0.003; F -0.332; G -0.2; H -0.351; I -0.189; L -0.169; M -0.209; N -0.011; P -0.359; Q -0.08; R -0.052

From the Human Domainome abundance scans (Beltran et al. 2025)
